Reference: the supplement of paper PMC12764529
± gives the half width of the 95% confidence interval.

Assays:
[1] = folding stability dG unfold from chymotrypsin proteolysis; higher = more stable
How it was run: (§1)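 K50 was inferred by Bayesian fitting of sequencing counts obtained after protease digestion of designed mini-proteins. Unfolding free energy was derived by comparison with a sequence-predicted unfolded-state K50 and a shared folded-state K50, for each protease or both combined. The mini-proteins were under 80 residues, had no cysteine, were carried in a PA-tagged cDNA display construct, and were kept only if AlphaFold2 dimer inter-PAE exceeded 15.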

[2] = folding stability dG unfold from trypsin proteolysis; higher = more stable
How it was run: as §1

[3] = folding stability dG unfold (combined trypsin and chymotrypsin); higher = more stable
How it was run: as §1

| Sequence | folding stability dG unfold [1] [kcal/mol] | folding stability dG unfold [2] [kcal/mol] | folding stability dG unfold [3] [kcal/mol] |
| --- | --- | --- | --- |
| SAGGSAGGSAGTIENVTVVGSKEFTAPGGVPTLIEYAKLPDGGTYTVTWTGDTTTTTVFPSAGGSAGGSAGG [r17_294_JUSTAS] | 0.675 ± 0.14 | 0.414 ± 0.021 | 0.624 ± 0.069 |
| SAGGSAGGSAGTIPLDNIKEVELEYDPNSGYYEHRIEFPNGRRLVIRFPPSDNVEIQWLDSAGGSAGGSAGG [r17_182_TrROS] | 1.33 ± 0.062 | 1.09 ± 0.025 | 1.31 ± 0.092 |
| SAGGSAGGSAGTIRIKTKDGKTIEIELEGLSDEELENPEVLAEIKKALEDAGFEIVEVEPSAGGSAGGSAGG [r11_467_TrROS_Hall] | 2.04 ± 0.054 | 2.19 ± 0.061 | 2.09 ± 0.078 |
| SAGGSAGGSAGTLRLEVELKLRVRNPATREWQEVTLRLEVEFEPAPPVLVRDANGRLLLLSAGGSAGGSAGG [r11_307_TrROS_Hall] | 3.434 ± 0.021 | 1.68 ± 0.024 | 2.98 ± 0.082 |
| SAGGSAGGSAGTLTFTFDGVTVEVRLVDGYLVIRVTTEVEVNGKKYKVTLELVIKLPEGLSAGGSAGGSAGG [r11_879_TrROS_Hall] | 5.4 ± 0.28 | 4.5 ± 0.41 | 5.49 ± 0.28 |
| SAGGSAGGSAGTRTITIFIPVPPGKMTPEDALDFIKPFFPDVKIEVEPVNNYYAIEITVKSAGGSAGGSAGG [r11_7_TrROS] | 0.825 ± 0.045 | 1.17 ± 0.056 | 1.04 ± 0.15 |
| SAGGSAGGSAGTSIKEAKIKLPSNGKTYKAIVTTHPNGKKYVYIPETGKVYELNNLIIEPSAGGSAGGSAGG [r11_301_TrMRF] | 2.32 ± 0.055 | 1.4 ± 0.047 | 2.02 ± 0.059 |
| SAGGSAGGSAGVEEIAKILQELGFEVEVEPVPDGMRTIEVQNKNGKKITIRITADGKIEISAGGSAGGSAGG [r17_503_TrROS] | 2.2 ± 0.14 | 1.9 ± 0.03 | 2.09 ± 0.11 |
| SAGGSAGGSAGVIDKENDRWYITQETPGGEPKTIPIPWDDIPDLPPENVKEVELMPPDDISAGGSAGGSAGG [r11_779_TrROS] | -0.00556 ± 0.056 | -0.179 ± 0.031 | -0.0024 ± 0.1 |
| SAGGSAGGSAGVKEGEEIEITLENGKTFTAKIEYDKETGYYKITIKDKKTNKEYEFVFKVSAGGSAGGSAGG [r11_960_TrROS_Hall] | 4.39 ± 0.17 | 2.62 ± 0.3 | 4.04 ± 0.22 |
| SAGGSAGGSAGVLSLEGVVSTEEFEDPSSSNKTLVITLPGGERVVVNLPSSPSSVVTRLVSAGGSAGGSAGG [r17_182_JUSTAS] | 0.467 ± 0.066 | 0.215 ± 0.028 | 0.422 ± 0.074 |
| SAGGSAGGSAGVNPNLPNYSVVPTTVTVKVLETFTDPQGNSYTREFTLEVETLIVNPPLLSAGGSAGGSAGG [r17_523_JUSTAS] | 3.91 ± 0.084 | 2.89 ± 0.12 | 3.59 ± 0.12 |
| SAGGSAGGSAGVSPNEDVKVEVLEVKPDPETGTYTVLVKDPRTGEERTLTLTPEELAKLLSAGGSAGGSAGG [r11_894_JUSTAS] | 4.53 ± 0.073 | 4.42 ± 0.19 | 4.56 ± 0.079 |
| SAGGSAGGSAGVSTTPDGVLVIKVKDPNTGKYTEIKVPTSRPEEAEKLKEKALEEGLELESAGGSAGGSAGG [r11_538_JUSTAS] | 1.49 ± 0.022 | 0.708 ± 0.038 | 1.2 ± 0.053 |
| SAGGSAGGSAGVTVSLPDGRVVTEVTTLPDGTVVITYTKDGKKYTTTLNGSAPAPTPTLASAGGSAGGSAGG [r17_421_JUSTAS] | 2.58 ± 0.035 | 2.42 ± 0.083 | 2.52 ± 0.086 |
| SAGGSAGGSAGWFTVTMMFLFPNGWAIKITWTFRMDENGNLKLEWEVEIEPVPPLKPGDPSAGGSAGGSAGG [r11_728_TrROS] | 6.21 ± 0.35 | 4.38 ± 0.51 | > 6 |

| Sequence | folding stability dG unfold [1] [kcal/mol] | folding stability dG unfold [2] [kcal/mol] | folding stability dG unfold [3] [kcal/mol] |
| --- | --- | --- | --- |
| SAGGSAGGSAGWIDPEDIKKIQHERNPNNGRGEMRLEFENGKPVEIEFKSPEEALDWLLKSAGGSAGGSAGG [r11_339_TrROS] | -0.156 ± 0.23 | -0.547 ± 0.15 | -0.185 ± 0.13 |
| SAGGSAGGSAGWIWMKVTEVNPDDGTIKIKFDGQKIKIPAKNMKIREDGDYVEIEIPEDDSAGGSAGGSAGG [r17_403_TrROS] | 0.242 ± 0.22 | 0.137 ± 0.16 | 0.228 ± 0.11 |
| SAGGSAGGSAGWLKLKFEFTFMIIIWNDDGNNELVMIPIRIRITMTIPPIKYDPDGKLKLSAGGSAGGSAGG [r11_558_TrROS] | 3.72 ± 0.067 | 2.87 ± 0.22 | 3.51 ± 0.22 |
| SAGGSAGGSAGWRAKVYPPGNGEPIGTIEIPKDWTPSQIKEIADDLQKKFPPGWRVEIEDSAGGSAGGSAGG [r11_1081_TrROS] | 0.904 ± 0.093 | 1.72 ± 0.051 | 1.38 ± 0.12 |
| SAGGSAGGSAGYIWIPAKDFAKYIAEEHEEKGYQINIPVEVRPDNWVWIDIEIQPLKPGQSAGGSAGGSAGG [r11_214_TrROS] | 1.3 ± 0.096 | 0.644 ± 0.048 | 1.04 ± 0.086 |
| SAGGSAGGSAGYLYFISIEFNLQWNGDGNLQLQPKIEIQRIEIPPPPPKWKYDGNKPKYDSAGGSAGGSAGG [r17_418_TrROS] | 3.44 ± 0.048 | 2.44 ± 0.12 | 3.04 ± 0.17 |
| SAGGSAGGSAIKAPPNSKIIKIEVKPLPNGDLLVEITIIDVPPDDSIGSGKYKILIKLEKGGSAGGSAGGSA [r18_273_TrMRF] | 3.1 ± 0.16 | 2.81 ± 0.3 | 3.02 ± 0.26 |
| SAGGSAGGSAIKEIVKRIEKLFGVDVEPEQEEREVNGGRYPTLPVTVKVPPNANSPALKEASAGGSAGGSAG [r3_427_TrROS] | 0.636 ± 0.093 | -0.555 ± 0.4 | 0.021 ± 0.24 |
| SAGGSAGGSAIKPGEKIKILVLVKDENGKEYLVKMEIEKLPDGKIKIKKVEIMSLEELKKLSAGGSAGGSAG [r3_212_TrROS_Hall] | 2.38 ± 0.029 | 1.84 ± 0.043 | 2.2 ± 0.13 |
| SAGGSAGGSAIPKAPVTVTVTTADGRPALATVEYYPDGVLVTVHYGDKTVTAWVAPADISASAGGSAGGSAG [r3_373_TrMRF] | 2.19 ± 0.11 | 0.864 ± 0.053 | 1.54 ± 0.17 |
| SAGGSAGGSAISIMIDDPDDLELAEEIANNIRDHFPDFPIKVEVERMPGNPDYYMIRVEWESAGGSAGGSAG [r3_131_TrROS] | 1.52 ± 0.042 | 1.79 ± 0.073 | 1.66 ± 0.096 |
| SAGGSAGGSAKAVEFYFPAEEYTVEEIIDRLVKELGVPKENIKLAKVEPLENGELKVIVEIPSAGGSAGGSA [r18_118_TrMRF] | 3.21 ± 0.12 | 2.82 ± 0.11 | 3.1 ± 0.092 |
| SAGGSAGGSAKEIDFKFRSPGNGEEFPFRVEIDEFDPDDGPLLIKVEMPNGKPHTFPADDILSAGGSAGGSA [r18_334_TrROS] | 0.76 ± 0.15 | 0.101 ± 0.086 | 0.503 ± 0.11 |
| SAGGSAGGSAKEILIVMTPEEAEELKKELLEKLKELAKKLKIKEIKIKVYLVKYDKNGKKVSAGGSAGGSAG [r3_89_TrROS_Hall] | 2.66 ± 0.091 | 1.9 ± 0.12 | 2.26 ± 0.28 |
| SAGGSAGGSAKELLKNIEKVEIIKNKKTNKYTIRIKNKNGKVYEFEFKSLEEALKKAGIKPSAGGSAGGSAG [r3_36_TrROS_Hall] | 3.19 ± 0.038 | 2.24 ± 0.041 | 2.93 ± 0.073 |
